Reference: US20110200615A1 (published 2011)

Experiments:
[1] = biological target: T1, Botulinum neurotoxin type B, subtype B3 (BoNT/B3) (Clostridium botulinum); assay: flow cytometry; yeast-displayed scFv, soluble toxin
[2] = biological target: T2, Botulinum neurotoxin type B, subtype B4 (BoNT/B4) (Clostridium botulinum); assay: as above
[3] = biological target: T1, Botulinum neurotoxin type B, subtype B3 …; assay: KinExA flow fluorimetry; IgG in solution
[4] = biological target: T2, Botulinum neurotoxin type B, subtype B4 …; assay: KinExA flow fluorimetry; IgG in solution

B1: 4B7 scFv (yeast displayed) (scFv)
chain: QVQLQQSGPGLVKPSQTLSLTCSVSGGSINSDGSYWSWVRQHPGKGLEWIGYIYYSGTTYFNPSLKSRLTMSVDTSKNQFSLKMTSVTAADTAVYYCARMSGSRSYSQYYFDSWGQGTLVTVSSGGGGSGGGGSGGGGSDIQMTQSPSSLSASVGDRVTITCRASQSISSYLNWYQQKPGTAPKLLISDASTLQSGVPSRFSGSGSGTEFTLTISNLQPEDFATYYCQQFNSYVWTFGQGTKLEIK
Kd [1]: 25.1 nM
Kd [2]: 10 nM

B2: 4B19.1 IgG (antibody, V domains shown)
VH: QVQLVQSGAEVKKPGASVNVSCKASGYTFTGYYIYWVRQAPGQGLEWMGWINPNSGVTKYAQKFQGRVTMTIDTSTNTAYMELNRLRADDTAVYYCAREWTQLWSPYDYWGQGTTVTVSS
VL: DIVLTQSPSTLSASVGDRVTISCRASRSIGWYLNWYQQRPGKAPKLLIYAASSLHNGVPSRFSGSGSGTEFTLTISSLQPDDFATYYCQQAFGFPRTFGQGTKVEIKR
Kd [3]: 0.156 nM
Kd [4]: 0.194 nM

B3: 4B6 scFv (yeast displayed) (scFv)
chain: QVQLVQSGAEVKKPGESLVISCKASGDKDTFTSFWIAWVRQMPGKGLEWMGIIYAGDSDTRYSPSFQGHVNISVDRSTNTAYLQWSSLKASDTAMYYCARHDSRYKYFYFGMDVWGQGTTVTVSSGGGGSGGGGSGGGGSDVVMTQSPSSLSASVGDRITITCQAGQDISNFLNWYQQKPGKAPKLLIRDASNLETGVPSRFSGGGSGTHFTFTISSLHPEDIATYFCQQYDNLPYTFGQGTKLEIK
Kd [1]: 1.08 nM
Kd [2]: 1.61 nM

B4: 1B14 scFv (yeast displayed) (scFv)
chain: EVQLVESGGGLVQPGGSLRLSCAASGFTFSSYSMNWVRQAPGKGLEWVAVIWYDGSNKYYADSVKGRFTISRDNSKNTLYLQMNSLRAEDTAVYYCARSSIVGAPYGMDVWGQGTTVTVSSGGGGSGGGGSGGGGSEIVLTQSPSSLSAAVGDRVTITCRASQNIYSYLNWYQQKLGKAPNLLIYAVFSLQSGVPSRFSGSGYGTDFTLTISSLQPEDFATYYCQQSSSSPLTFGGGTKVEIK
Kd [2]: 2.12 nM
